Results from paper PMC4865122, “Structural Analysis and Insights into the Oligomeric State of an Arginine-Dependent Transcriptional Regulator from Bacillus halodurans” (PLoS ONE, 2016).

Tests used:
BhArgR (ArgR, Bh2777) = target: T1, BhArgR (ArgR, Bh2777) (Halalkalibacterium halodurans, UniProt Q9K973); assay: SEC-MALS (trimer to hexamer shift); EMSA; conditions: 10 mM L-arginine; SEC-MALS: 20 mM Tris-HCl pH 8.0, 200 mM NaCl, 2 mM MgCl2, 1 mM DTT; EMSA with argG ARG box DNA at 4 C; corepressor; indirect evidence of binding
T1 construct: full length, 149 residues; hexa-histidine tagged in SEC-MALS; trimer (57 kDa) without L-arginine, hexamer (114 kDa) with L-arginine
T1 sequence (Q9K973 1-149): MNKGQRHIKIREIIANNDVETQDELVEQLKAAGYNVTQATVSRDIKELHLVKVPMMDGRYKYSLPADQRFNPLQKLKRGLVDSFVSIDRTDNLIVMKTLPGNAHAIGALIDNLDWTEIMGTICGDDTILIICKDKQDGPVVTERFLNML

[1] = target: T2, BhArgR (Bacillus halodurans) (UniProt Q9K973); assay: EMSA; conditions: 50 mM Tris-HCl pH 7.5, 200 mM NaCl, 10 mM MgCl2, 10 mM CaCl2, 10% glycerol; on ice 40 min; 6% native PAGE in TBE pH 8.8 +/- 10 mM L-arginine, 4 C
T2 sequence: T1 sequence (Q9K973 1-149)

[2] = target: the molecule itself; assay: SEC-MALS; Superdex-200 10/300 GL, 20 mM Tris-HCl pH 8.0, 200 mM NaCl, 2 mM MgCl2, 1 mM DTT; 3~6 mg/ml injected; with 10 mM L-arginine

Molecule: N=C(N)NCCC[C@H](N)C(=O)O [L-arginine]
- SEC-MALS (trimer to hexamer shift); EMSA (BhArgR (ArgR, Bh2777)): it formed a hexamer in the presence of L-arginine in multi-angle light scattering (MALS) studies

Molecule: CCCAGAATACGCTAAGACAACTTTCTTTTTGCTCATGCTAACAATCCCTCCAAAGTGAATATTCATACTCTTGTTATTATTTTTATACATCCACTTGCATAAAAAAAGGCCTGTATAAA (double strand) [119-bp cognate argG promoter DNA]
- binding [1]: binds

B1: Arginine repressor (ArgR, BH2777) from Bacillus halodurans (natural protein, UniProt Q9K973 1-149, looked up)
chain: T1 sequence (Q9K973 1-149)
notes: Arginine repressor ArgR (BH2777), Bacillus halodurans, 149 amino acid residues; Met1, Asp2 and Lys3 were in the crystal but disordered, and the model covers residues 4-149; The tag is named for the SEC-MALS sample; Oligomer: trimer without L-arginine, hexamer with 10 mM L-arginine; also called BhArgR; B. halodurans ArgR; source: overexpressed and purified
- stoichiometry N [2]: 6
